In patent publication US20260176373A1 (BRIGHT BIOLOGICS, published 2026):
Residue numbers refer to the chain shown, from its start. Names and notes keep the numbering of the source. One block for each binder: values may come before it.

Tests used:
[1] = target: T1, human HER2 (human epidermal growth factor receptor 2) (human, UniProt P04626 23-1255); assay: flow cytometry whole cell binding, SKBR3 cells
T1 construct: whole, on cells; also called ERBB2; h-HER2

[2] = target: T1, human HER2 (human epidermal growth …); assay: flow cytometry whole cell binding, HCC202 cells
[3] = target: T1, human HER2 (human epidermal growth …); assay: cell-based or functional assay
[4] = target: T1, human HER2 (human epidermal growth …); assay: flow cytometry whole cell binding, CHO-h-HER2 stable cells
[5] = target: T2, human TROP2 (Trophoblast cell-surface antigen 2) (human, UniProt P09758 27-323); assay: flow cytometry whole cell binding, SKBR3
T2 chain: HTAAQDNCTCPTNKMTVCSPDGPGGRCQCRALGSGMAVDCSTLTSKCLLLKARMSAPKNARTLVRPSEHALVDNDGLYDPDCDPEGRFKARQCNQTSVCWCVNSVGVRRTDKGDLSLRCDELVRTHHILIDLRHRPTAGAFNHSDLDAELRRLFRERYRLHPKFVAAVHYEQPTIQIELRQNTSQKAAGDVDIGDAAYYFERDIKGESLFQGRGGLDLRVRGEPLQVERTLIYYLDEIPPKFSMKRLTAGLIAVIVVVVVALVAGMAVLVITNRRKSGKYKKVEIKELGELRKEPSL

mouse TROP2 = target: T3, mouse TROP2 (mouse, UniProt Q8BGV3 25-317); assay: flow cytometry whole cell binding, m-TROP2 stably transfected 293T cells
T3 construct: whole, on cells; also called m-TROP2
T3 sequence (looked up): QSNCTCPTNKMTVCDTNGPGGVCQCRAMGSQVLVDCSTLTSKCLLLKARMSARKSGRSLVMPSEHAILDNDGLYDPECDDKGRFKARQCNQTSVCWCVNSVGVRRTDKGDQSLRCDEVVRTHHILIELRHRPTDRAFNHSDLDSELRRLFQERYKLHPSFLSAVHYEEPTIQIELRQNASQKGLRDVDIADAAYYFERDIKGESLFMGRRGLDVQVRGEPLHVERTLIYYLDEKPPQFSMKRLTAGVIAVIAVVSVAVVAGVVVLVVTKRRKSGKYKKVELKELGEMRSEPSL

[6] = target: T4, human TROP2 (Trophoblast cell-surface antigen 2) (human, UniProt P09758 27-323); assay: flow cytometry whole cell binding, h-TROP2 stably transfected CHO cells
T4 construct: whole, on cells; also called TACSTD2; h-TROP2
T4 sequence (looked up): T2 chain
Procedure: (§1) Binding of bivalent anti-TROP2 VHH-Fc clones to human TROP2 in human TROP2 stably transfected CHO cells (CHO-h-TROP2 stable cells) were determined by flow cytometry whole cell binding (WCB) assays. Briefly, antibodies were incubated at different concentrations with CHO-h-TROP2 stable cells (0.2×10⁶/ml) in 96-well plates (100 μl/well) in FACS buffer for 30 min. After washing, Alexa Fluor 488 conjugated anti-human IgG Fc secondary antibody was added, and incubated for 30 min. After washing, MFI was measured using CytoFlex by gating live cell population with FITC channel. EC50 of binding was calculated using GraphPad Prism7.0.

[7] = target: T4, human TROP2 (Trophoblast cell-surface …); assay: flow cytometry whole cell binding, SKBR3 cells
[8] = target: T4, human TROP2 (Trophoblast cell-surface …); assay: flow cytometry whole cell binding, HCC202 cells
[9] = target: T4, human TROP2 (Trophoblast cell-surface …); assay: flow cytometry whole cell binding, NCI-H441 cells
[10] = target: T4, human TROP2 (Trophoblast cell-surface …); assay: cell-based or functional assay
[11] = target: T4, human TROP2 (Trophoblast cell-surface …); assay: flow cytometry whole cell binding, CHO-h-TROP2 stable cells
[12] = target: T4, human TROP2 (Trophoblast cell-surface …); assay: as above; remark: listed apart in the source
Procedure: as §1
The same strategy was carried out for the humanization of Alpaca clone 4C6. Ten humanized VHH-Fc variants were made for 4C6 with minor difference in Framework 2 and Framework 3. Whole cell binding to CHO-h-TROP2 stable cells was performed to compare the binding affinities of these humanized VHH-Fc variants to the parental Alpaca clone 4C6.

[13] = target: T4, human TROP2 (Trophoblast cell-surface …); assay: as above; remark: listed apart in the source
Procedure: as §1
Humanization of Alpaca clone 1H11 was carried out using the same strategy. Ten humanized VHH-Fc variants were made with minor difference in Framework 2. The binding activity of humanized variants to human TROP2 was examined using whole cell binding assays.

[14] = target: T4, human TROP2 (Trophoblast cell-surface …); assay: flow cytometry whole cell binding, Colo205 cells (endogenous TROP2)
[15] = target: T4, human TROP2 (Trophoblast cell-surface …); assay: flow cytometry whole cell binding, NCI-H1975 cells (endogenous TROP2)
[16] = target: human TROP2 (Trophoblast cell-surface antigen 2) (human) (UniProt P09758); assay: flow cytometry, SKOV3 cells
[17] = target: human TROP2 (Trophoblast cell-surface antigen 2) (human) (UniProt P09758); assay: flow cytometry whole cell binding, NCI-H441 cells
[18] = target: human TROP2 (Trophoblast cell-surface antigen 2) (human) (UniProt P09758); assay: flow cytometry whole cell binding, NCI-H1975 cells (endogenous TROP2)
[19] = target: human TROP2 (Trophoblast cell-surface antigen 2) (human) (UniProt P09758); assay: flow cytometry, HCC202 cells, antibody at 100 nM
[20] = target: human TROP2 (Trophoblast cell-surface antigen 2) (human) (UniProt P09758); assay: flow cytometry, AU-565 cells, Immu-132 at 100 nM
[21] = target: human TROP2 (Trophoblast cell-surface antigen 2) (human) (UniProt P09758); assay: flow cytometry whole cell binding, CHO-h-TROP2 stable cells
[22] = target: human TROP2 (Trophoblast cell-surface antigen 2) (human) (UniProt P09758); assay: flow cytometry, SKBR3 cells, antibody at 100 nM
[23] = target: human TROP2 (Trophoblast cell-surface antigen 2) (human) (UniProt P09758); assay: flow cytometry whole cell binding, Colo205 cells (endogenous TROP2)
[24] = target: human TROP2 (Trophoblast cell-surface antigen 2) (human) (UniProt P09758); assay: cell-based or functional assay
[25] = target: human TROP2 (Trophoblast cell-surface antigen 2) (human) (UniProt P09758); assay: flow cytometry whole cell binding, HCC202 cells
[26] = target: human TROP2 (Trophoblast cell-surface antigen 2) (human) (UniProt P09758); assay: flow cytometry whole cell binding, CHO-h-TROP2 stable cells; remark: listed apart in the source
[27] = target: human TROP2 (Trophoblast cell-surface antigen 2) (human) (UniProt P09758); assay: flow cytometry, NCI-H441 cells, Immu-132 at 100 nM
[28] = target: human TROP2 (Trophoblast cell-surface antigen 2) (human) (UniProt P09758); assay: flow cytometry whole cell binding, SKBR3 cells
[29] = target: human TROP2 (Trophoblast cell-surface antigen 2) (human) (UniProt P09758); assay: flow cytometry, OE-19 cells
[30] = target: human TROP2 (Trophoblast cell-surface antigen 2) (human) (UniProt P09758); assay: flow cytometry whole cell binding, h-TROP2 stably transfected CHO cells

- EC50 [1]: 2.59 nM
- EC50 [2]: 3.25 nM
- EC50 [4]: 0.684 nM
B1: 11D5_Fc (antibody, V domains shown)
VH: QVQLVESGGGVVQPGRSLRLSCAASGSTFSSLAMHWVRQAPGKERELVAAISYSGGYTYYADSVKGRFTISRDNSKNTLYLQMNSLRAEDTAVYYCAASSIFIGAYDYWGQGTLVTVSS
notes: monospecific bivalent VHH-Fc with C220S mutation in the hinge region; also called monospecific anti-HER2 (11D5)
- IC50, nM, Killing of HCC202 cells by 2nd Ab-MMAE [3]: 0.18 nM
- IC50, nM, Killing of SKBR3 cells by 2nd Ab-MMAE [3]: 0.134 nM

- EC50 [5]: 1.76 nM
- EC50 (mouse TROP2): 760 nM
- EC50 [6]: 1.46 nM
B2: anti-TROP2 VHH-Fc clone Alpaca 3H9 (antibody, human IgG1, V domains shown)
VH: LVQLVESGGGLVQAGGSQRLSCAVSGRAFAYYAMGWFRQAPGKEREFVAAIAGSGDSTYYADSVKGRFTISRDYAKNTNYLQMNSLKPEDTAVYYCAAAGGTFYSGTAVATRSSQYDYWGQGTQVTVSS
notes: domain: hinge region and constant domains (CH2 and CH3); bivalent VHH-Fc, human IgG1 Fc; also called 3H9-Fc

- EC50 [7]: 141 nM
- EC50 [8]: 3.5 nM
- EC50 [9]: 1.6 nM
B3: 1H11-hv8_Fc (antibody, V domains shown)
VH: EVQLVESGGGLVQPGGSLRLSCAASGGTFSRYIMGWFRQAPGKEREFVSTISGSGGSTYYADSVKGRFTISRDNSKNTLYLQMNSLRAEDTAVYYCASTFYSTTYVAQRDARDYAYWGQGTQVTVSS
notes: monospecific bivalent VHH-Fc with C220S mutation in the hinge region; also called monospecific anti-TROP2 (1H11-hv8)
- IC50, nM, Killing of HCC202 cells by 2nd Ab-MMAE [10]: 0.2 nM
- IC50, nM, Killing of NCI-H441 cells by 2nd Ab-MMAE [10]: 0.15 nM
- IC50, nM, Killing of SKBR3 cells by 2nd Ab-MMAE [10]: 0.48 nM

- EC50 [11]: 2.38 nM
B4: 1H11-hv10_Fc (antibody, V domains shown)
VH: B3 VH with G35S, T50A
notes: monospecific bivalent VHH-Fc with C220S mutation in the hinge region; also called monospecific anti-TROP2 (1H11-hv10)

- EC50 [12]: 0.97 nM
- EC50 [5]: 1.58 nM
- EC50 [6]: 1.37 nM
B5: anti-TROP2 VHH-Fc clone Alpaca 4C6 (antibody, human IgG1, V domains shown)
VH: QVQVVESGGGLVQAGGSQRLSCAVSGHPFAMYAMGWFRQAPGKEREFVAAIAGNGGSTSYADSVKGRFTISRDYAKNTNYLQMNSLEPEDTAVYYCAAAGGTFYSGTTVATRSSHYDYWGQGTQVTVSS
notes: domain: hinge region and constant domains (CH2 and CH3); bivalent VHH-Fc, human IgG1 Fc; also called 4C6 Alpaca

- EC50 [13]: 1.57 nM
- EC50 [5]: 2.14 nM
- EC50 [14]: 1.53 nM
- EC50 [6]: 1.84 nM
- EC50 [15]: 2.59 nM
B6: anti-TROP2 VHH-Fc clone Alpaca 1H11 (antibody, human IgG1, V domains shown)
VH: LVQLVESGGGLVQAGDSLRLSCTASGGTFSRYIIGWFRQAPGKEREFVTTISGSGGSTYYADSVKGRFTISRDNAKNTVFLQMNSLKPEDTAVYYCASTFYSTTYVAQRDARDYAYWGQGTQVTVSS
notes: domain: hinge region and constant domains (CH2 and CH3); bivalent VHH-Fc, human IgG1 Fc

- MFI [16]: 50000 MFI
- EC50 [17]: 1.74 nM
- EC50 [18]: 3.61 nM
- MFI [19]: 200000 MFI
- MFI [20]: 90000 MFI
- EC50 [21]: 1.16 nM
- MFI [22]: 90000 MFI
- EC50 [23]: 1.15 nM
- EC50 [25]: 4.02 nM
- EC50 [26]: 0.84 nM
- MFI [27]: 200000 MFI
- EC50 [28]: 128 nM
- MFI [29]: 30000 MFI
- EC50 [30]: 2.2 nM
B7: Immu-132 (antibody, INN chains, looked up, V domains shown)
VH: QVQLQQSGSELKKPGASVKVSCKASGYTFTNYGMNWVKQAPGQGLKWMGWINTYTGEPTYTDDFKGRFAFSLDTSVSTAYLQISSLKADDTAVYFCARGGFGSSYWYFDVWGQGSLVTVSS
VL: DIQLTQSPSSLSASVGDRVSITCKASQDVSIAVAWYQQKPGKAPKLLIYSASYRYTGVPDRFSGSGSGTDFTLTISSLQPEDFAVYYCQQHYITPLTFGAGTKVEIKR
modifications: unconjugated
- IC50, nM, Killing of HCC202 cells by 2nd Ab-MMAE [24]: 0.19 nM
- IC50, nM, Killing of NCI-H441 cells by 2nd Ab-MMAE [24]: 0.13 nM
- IC50, nM, Killing of SKBR3 cells by 2nd Ab-MMAE [24]: 0.452 nM
